Source: patent US20210079067A1 (US Dept. of Health and Human Services, published 2021)

T1: Zaire ebolavirus full-length GP (Zaire ebolavirus, UniProt Q05320 33-650)
T1 sequence: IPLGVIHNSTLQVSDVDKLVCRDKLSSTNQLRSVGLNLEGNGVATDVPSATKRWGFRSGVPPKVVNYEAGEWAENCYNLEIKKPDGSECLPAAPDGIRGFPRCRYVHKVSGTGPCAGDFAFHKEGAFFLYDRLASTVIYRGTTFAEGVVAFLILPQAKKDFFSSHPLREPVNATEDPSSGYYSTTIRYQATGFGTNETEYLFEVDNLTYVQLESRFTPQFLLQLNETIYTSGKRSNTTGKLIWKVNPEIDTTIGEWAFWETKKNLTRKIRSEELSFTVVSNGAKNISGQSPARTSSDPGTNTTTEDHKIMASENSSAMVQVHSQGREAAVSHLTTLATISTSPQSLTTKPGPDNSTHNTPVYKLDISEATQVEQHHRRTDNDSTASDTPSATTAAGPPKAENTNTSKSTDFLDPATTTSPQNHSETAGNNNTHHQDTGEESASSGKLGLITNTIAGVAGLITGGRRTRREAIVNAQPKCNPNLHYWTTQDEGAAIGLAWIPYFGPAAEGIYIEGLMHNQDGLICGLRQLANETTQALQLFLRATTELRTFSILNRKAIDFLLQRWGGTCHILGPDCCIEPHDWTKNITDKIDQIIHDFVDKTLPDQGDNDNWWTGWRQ

T2: Zaire ebolavirus secreted GP (sGP) (Zaire ebolavirus, UniProt P60170 33-324)
T2 sequence: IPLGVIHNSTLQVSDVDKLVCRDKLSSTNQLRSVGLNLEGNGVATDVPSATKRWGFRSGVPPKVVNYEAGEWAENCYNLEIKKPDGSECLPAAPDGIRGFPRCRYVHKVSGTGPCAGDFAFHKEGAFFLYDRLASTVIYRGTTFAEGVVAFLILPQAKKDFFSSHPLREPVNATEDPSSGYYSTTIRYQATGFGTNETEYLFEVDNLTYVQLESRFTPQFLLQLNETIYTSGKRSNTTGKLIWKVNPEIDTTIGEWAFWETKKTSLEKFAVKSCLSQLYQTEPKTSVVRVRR


What was measured:
[1] = target: T1, Zaire ebolavirus full-length GP; test: ELISA on plates coated with purified full-length Zaire ebolavirus GP, A450
[2] = target: T2, Zaire ebolavirus secreted GP (sGP); test: ELISA on plates coated with purified Zaire ebolavirus sGP, A450
[3] = target: T2, Zaire ebolavirus secreted GP (sGP); test: biolayer interferometry, pH 7.4

| Binder | EC50 (read off the curve) [1] | binding result [2] | binding result [3] |
| --- | --- | --- | --- |
| S1-4-A09 antibody (IgG1 expressed version) (antibody, V domains shown) VH: QVQLQESGPGLVKPSETLSLTCVVSGGILSSFYWNWIRQPPGKGLEWIGNIYYSGSPNYNASFQSRVAISVDTSKNQISLNLKSVTAADTAMYYCVRASRAYLWGSYRPTALDLWGQGSLVTVSS VL: SYELTQPPSVSVSPGQTATITCSGDKLGDKYTSWFQQRPGQSPLLVIYQDNKRPSGLPARFSGSNSGNTATLTISGTQAMDEADYLCQVWDSGAVFGGGTKLTVLG | ~0.03 µg/mL | no binding |  |
| mAb100 (antibody, V domains shown) VH: QVQLQESGPGLVKPSDTLSLTCTVSGGSLSSFYWSWIRQPPGKGLEWIGYIYYSGSPNYSPSLESRVTMSVDTTRNQISLKLDSVTAADTAVYYCVRASRSYYWGSYRPTAFDSWGQGTLVTVSS VL: SYELTQPLSVSVSPGQTAIFTCSGDNLGDKYVCWFQQRPGQSPMLLIYQDNKRPSGIPERFSGSNSGNTATLTISGTQSTDEADYYCQTWDSTVVFGGGTKLTVL | ~0.02 µg/mL |  |  |
| S1-4-A09 Fab (Fab, V domains shown) VH: QVQLQESGPGLVKPSETLSLTCVVSGGILSSFYWNWIRQPPGKGLEWIGNIYYSGSPNYNASFQSRVAISVDTSKNQISLNLKSVTAADTAMYYCVRASRAYLWGSYRPTALDLWGQGSLVTVSS VL: SYELTQPPSVSVSPGQTATITCSGDKLGDKYTSWFQQRPGQSPLLVIYQDNKRPSGLPARFSGSNSGNTATLTISGTQAMDEADYLCQVWDSGAVFGGGTKLTVL |  |  | no binding |
